Results published in doi:10.1101/2022.11.10.516004 (bioRxiv, 2022).

Molecular target: the molecule itself
Assay: NMR titration

B1: TDP-43 C-terminal domain (CTD), wild type (domain or fragment, human, UniProt Q13148 267-414, looked up)
chain: NRQLERSGRFGGNPGGFGNQGGFGNSRGGGAGLGNNQGSNMGGGMNFGAFSINPAMMAAAQAALQSSWGMMGMLASQQNQSGPSGNNQNQGNMQREPNQAFGSGNNSYSGSNSGAAIGWGSASNAGSGSGFNGGFGSSMDSKSSGWGM
binding result: binds
